Patent US20050148763A1, “Peg-binding pth or peg-binding pth derivative” (Chugai Seiyaku Kabushiki Kaisha, priority 2002, published 2005)

What was measured:
[1] = target: T1, human PTH1 receptors (Homo sapiens, UniProt Q03431); assay: in vitro ability to produce cAMP, HKRK-B64 cells; format: cell-based; settings: Table 2(2), n=2-3
T1 construct: expressed in transfected cells; host or cells: HKRK-B7 and HKRK-B64 cells (derived from pig kidney LLC-PK1 cells)
T1 sequence (Q03431 27-593): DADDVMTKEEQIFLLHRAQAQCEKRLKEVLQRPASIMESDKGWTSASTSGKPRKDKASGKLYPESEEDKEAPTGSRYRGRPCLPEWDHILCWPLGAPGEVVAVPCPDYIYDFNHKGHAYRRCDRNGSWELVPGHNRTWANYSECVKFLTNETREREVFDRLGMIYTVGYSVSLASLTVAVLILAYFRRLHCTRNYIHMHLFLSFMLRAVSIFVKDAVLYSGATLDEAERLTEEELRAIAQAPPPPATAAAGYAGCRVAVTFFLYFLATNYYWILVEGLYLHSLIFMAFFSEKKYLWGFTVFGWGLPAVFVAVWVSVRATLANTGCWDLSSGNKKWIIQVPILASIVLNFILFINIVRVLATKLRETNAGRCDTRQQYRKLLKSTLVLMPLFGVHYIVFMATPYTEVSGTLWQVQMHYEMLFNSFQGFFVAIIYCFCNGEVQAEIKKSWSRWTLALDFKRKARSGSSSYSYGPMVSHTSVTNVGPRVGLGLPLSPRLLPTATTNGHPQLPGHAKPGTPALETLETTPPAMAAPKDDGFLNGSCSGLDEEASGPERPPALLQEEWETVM
Method: Each PEG-PTH sample was assayed for its ability to produce cAMP (indicative of the increasing effect of PTH on bone mass) as follows. HKRK-B7 and HKRK-B64 cells, genetically modified from pig kidney-derived LLC-PK1 cells to overexpress human PTH1 receptors at levels of about 1×10^6 and 9×10^4 receptors per cell, respectively, as well as EW29 cells expressing about 1.9×10^5 rat PTH1 receptors per cell (Takasu et al., J. Bone. Miner. Res. 14: 11-20, 1999) were grown in DMEM supplemented with 10% FBS, 1% penicillin and 1% streptomycin. These cells were seeded in 96-well plates at 1×10^5 cells/well and incubated overnight. On the following day, the cells were washed once with 200 μL binding buffer (50 mM Tris-HCl/100 mM NaCl/5 mM KCl/2 mM CaCl2/5% inactivated horse serum/0.5% inactivated bovine serum, pH 7.7), followed by addition of 100 μL cAMP assay buffer (DMEM/2 mM 3-isobutyl-1-methylxanthine/1 mg/mL bovine serum albumin/35 mM HEPES-NaOH, pH 7.4) on ice. […] After removing the reaction solution, the plates were placed on powdered dry ice to freeze the cells and then removed from the dry ice. The cells were thawed with 50 μL of 50 mM HCl and frozen again on dry ice. The level of intracellular cAMP was determined with a commercially available EIA kit (Biotrak cAMP EIA system, Amersham).

[2] = target: T2, rat PTH1 receptors (Rattus norvegicus, UniProt P25961); assay: in vitro ability to produce cAMP, EW29 cells; format: cell-based; settings: Table 2(3), n=2-3
T2 construct: expressed in transfected cells; host or cells: EW29 cells
T2 sequence (P25961 27-591): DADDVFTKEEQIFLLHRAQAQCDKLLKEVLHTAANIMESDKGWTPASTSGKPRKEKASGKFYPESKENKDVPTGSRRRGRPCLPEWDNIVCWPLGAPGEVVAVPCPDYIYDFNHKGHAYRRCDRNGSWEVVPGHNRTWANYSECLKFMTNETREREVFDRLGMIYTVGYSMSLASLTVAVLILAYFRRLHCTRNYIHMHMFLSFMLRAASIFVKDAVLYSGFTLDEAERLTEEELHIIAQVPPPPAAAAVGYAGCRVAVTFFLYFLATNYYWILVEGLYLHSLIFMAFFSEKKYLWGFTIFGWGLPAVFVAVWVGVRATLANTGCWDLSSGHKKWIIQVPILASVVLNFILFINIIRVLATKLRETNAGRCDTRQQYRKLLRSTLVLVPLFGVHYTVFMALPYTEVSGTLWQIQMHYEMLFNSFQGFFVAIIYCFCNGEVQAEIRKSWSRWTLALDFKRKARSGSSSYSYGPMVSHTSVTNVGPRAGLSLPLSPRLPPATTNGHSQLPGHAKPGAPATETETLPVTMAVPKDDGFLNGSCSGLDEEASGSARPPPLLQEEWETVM
Method: Each PEG-PTH sample was assayed for its ability to produce cAMP (indicative of the increasing effect of PTH on bone mass) as follows. […] These cells were seeded in 96-well plates at 1×10^5 cells/well and incubated overnight. […] After removing the reaction solution, the plates were placed on powdered dry ice to freeze the cells and then removed from the dry ice. The cells were thawed with 50 μL of 50 mM HCl and frozen again on dry ice. The level of intracellular cAMP was determined with a commercially available EIA kit (Biotrak cAMP EIA system, Amersham).

[3] = Hypercalcemic effect of PEG-[Cys^35]-PTH(1-35) in normal female DDY mice; format: in vivo; settings: for Blood iCa level Hour 1: 1 hour after administration; for Blood iCa level Hour 3: 3 hours; for Blood iCa level Hour 6: 6 hours; for Blood iCa level Hour 9: 9 hours; for Blood iCa level Hour 24: 24 hours; for Blood iCa level Hour 0: before administration
Method: 2 k, 5 k and 20 k PEG-[Cys^35]-PTH(1-35) were also adjusted similarly to 30, 10 and 2 nmol/mL (calculated as PTH) and allowed to stand on ice immediately before administration.
Using female DDY mice at 6 weeks of age (Japan SLC, Inc.), the corrected level of ionized calcium at pH 7.4 was determined for each sample in the same manner as shown in (1) above. The mice received subcutaneous administration of each drug at a dose of 5 mL/kg. The buffer was administered to a group of 5 mice. […] 150 nmol/kg 2 k, 5 k and 20 k PEG-[Cys^35]-PTH(1-35) were administered to groups of 4 mice each. 50 and 10 nmol/kg 2 k, 5 k and 20 k PEG-[Cys^35]-PTH(1-35) were administered to groups of 5 mice each. At 1, 3, 6, 9 and 24 hours after administration, blood was collected by orbital puncture to monitor the time course of corrected blood ionized calcium levels.

[4] = clinical, single subcutaneous 20-40 μg, at 4 to 6 hours after administration; cited from earlier work

Compound	Blood iCa level Hour 1 ([3]; 50 nmol/kg sc) [mM]	Blood iCa level Hour 3 ([3]; 50 nmol/kg sc) [mM]	Blood iCa level Hour 6 ([3]; 50 nmol/kg sc) [mM]	Blood iCa level Hour 9 ([3]; 50 nmol/kg sc) [mM]	Blood iCa level Hour 24 ([3]; 50 nmol/kg sc) [mM]	Blood iCa level Hour 0 ([3]; 50 nmol/kg sc) [mM]	Blood iCa level Hour 1 ([3]; 150 nmol/kg sc) [mM]	Blood iCa level Hour 3 ([3]; 150 nmol/kg sc) [mM]	Blood iCa level Hour 6 ([3]; 150 nmol/kg sc) [mM]	Blood iCa level Hour 9 ([3]; 150 nmol/kg sc) [mM]	Blood iCa level Hour 24 ([3]; 150 nmol/kg sc) [mM]	Blood iCa level Hour 0 ([3]; 150 nmol/kg sc) [mM]	time of maximum increase in blood ionized calcium levels after administration ([3]; female DDY mice, sc) [h]	further results
2 k PEG-[Cys^35]-hPTH(1-35): [Cys^35]-PTH(1-35) conjugated with mPEG 2 k-MAL (2 kDa methoxy-PEG-maleimide) at the C-terminal cysteine (SVSEIQLMHNLGKHLNSMERVEWLRKKLQDVHNFC; Parathyroid hormone 2 kDa mPEG-maleimide at Cys35; UniProt P01270 32-66, looked up, variant V35C)	1.41 ± 0.02	1.47 ± 0.03	1.47 ± 0.02	1.29 ± 0.05	1.34 ± 0.03	1.27 ± 0.03	1.44 ± 0.02	1.47 ± 0.05	1.48 ± 0.05	1.26 ± 0.02	1.34 ± 0.03	1.32 ± 0.02	3	Maximum cAMP response [1]: 65.4 ± 19.4 pmol/well; EC50 ([1]; cAMP production): 0.6 nM; Maximum cAMP response [2]: 52.2 ± 12.3 pmol/well; EC50 ([2]; cAMP production): 2.2 nM; Blood iCa level Hour 1 ([3]; 10 nmol/kg sc): 1.44 ± 0.03 mM; Blood iCa level Hour 3 ([3]; 10 nmol/kg sc): 1.48 ± 0.02 mM; Blood iCa level Hour 6 ([3]; 10 nmol/kg sc): 1.39 ± 0.02 mM; Blood iCa level Hour 9 ([3]; 10 nmol/kg sc): 1.32 ± 0.04 mM; Blood iCa level Hour 24 ([3]; 10 nmol/kg sc): 1.37 ± 0.02 mM; Blood iCa level Hour 0 ([3]; 10 nmol/kg sc): 1.30 ± 0.04 mM; increased blood ionized calcium level maintained until ([3]; female DDY mice, sc): 6 h
CC[C@H](C)[C@H](NC(=O)[C@H](CCC(=O)O)NC(=O)[C@H](CO)NC(=O)[C@@H](NC(=O)[C@@H](N)CO)C(C)C)C(=O)N[C@@H](CCC(N)=O)C(=O)N[C@@H](CC(C)C)C(=O)N[C@@H](CCSC)C(=O)N[C@@H](Cc1cnc[nH]1)C(=O)N[C@@H](CC(N)=O)C(=O)N[C@@H](CC(C)C)C(=O)NCC(=O)N[C@@H](CCCCN)C(=O)N[C@@H](Cc1cnc[nH]1)C(=O)N[C@@H](CC(C)C)C(=O)N[C@@H](CC(N)=O)C(=O)N[C@@H](CO)C(=O)N[C@@H](CCSC)C(=O)N[C@@H](CCC(=O)O)C(=O)N[C@@H](CCCN=C(N)N)C(=O)N[C@H](C(=O)N[C@@H](CCC(=O)O)C(=O)N[C@@H](Cc1c[nH]c2ccccc12)C(=O)N[C@@H](CC(C)C)C(=O)N[C@@H](CCCN=C(N)N)C(=O)N[C@@H](CCCCN)C(=O)N[C@@H](CCCCN)C(=O)N[C@@H](CC(C)C)C(=O)N[C@@H](CCC(N)=O)C(=O)N[C@@H](CC(=O)O)C(=O)N[C@H](C(=O)N[C@@H](Cc1cnc[nH]1)C(=O)N[C@@H](CC(N)=O)C(=O)N[C@@H](Cc1ccccc1)C(=O)O)C(C)C)C(C)C [hPTH(1-34), reference compound]	1.45 ± 0.03	1.43 ± 0.03	1.33 ± 0.02	1.27 ± 0.05	1.36 ± 0.02	1.31 ± 0.03	1.46 ± 0.02	1.48 ± 0.03	1.36 ± 0.02	1.32 ± 0.04	1.36 ± 0.03	1.33 ± 0.03	3	Blood iCa level Hour 1 ([3]; 500 nmol/kg sc): 1.44 ± 0.04 mM; Blood iCa level Hour 3 ([3]; 500 nmol/kg sc): 1.46 ± 0.04 mM; Blood iCa level Hour 6 ([3]; 500 nmol/kg sc): 1.43 ± 0.01 mM; Blood iCa level Hour 9 ([3]; 500 nmol/kg sc): 1.27 ± 0.04 mM; Blood iCa level Hour 24 ([3]; 500 nmol/kg sc): 1.39 ± 0.02 mM; Blood iCa level Hour 0 ([3]; 500 nmol/kg sc): 1.34 ± 0.03 mM; blood calcium levels (in words) [4]: transient elevation of blood calcium levels
